The record followed here is the DeepSol protein solubility set.

A short description of this data set: soluble on expression in E. coli; label from the status in PepcDB or PDB records.
“MIDFNVDSARCTRCGQCVADCPSRIIVMATGEYPSIAPGKEFSCLRCEHCLAVCPEAAISILGFSPDGSTPLKGNLPETDQLETLIAGRRSVRRYCPENLSPELIDKLITVASCAPTGVNARKVRFTVLDDREKTAHFRDEVMERLVRLLEEEALPESKAYYARFVKVWQKHKIDLVFRDAPHLLIATAPKSLSTPRQDCVIALTTFELYAQACGIGTLWNGIATWAIEEMLPEMRQRLGIPDDHAFGYAMLFGKPAVRYARTVQHHPPEIYRVPLEHHHHHH”: the “soluble on expression in E. coli” value was “not soluble”.
The same measure for “MIDHAHLRLFQFCDSQFPTGAFSHSFGLETYIQRDTVHDEESFQQWLVLFLNEQLTYADGLTMRLVYDALNENDTKAILKLDRILFVQNLPKETRQGSKQMGNRMVKLASELYDSDWINWYHAQMKDKKASLHPAICFTMLGHHLGVDIETIIDYYLYQNVSSLTQNAVRAIPLGQTAGQRIVHKMIPIMKETRDHIMTIPASQLGITAPGLEINQMEHENVNVRIFISLEHHHHHH”: “not soluble”; for “MIDIIANIASILGFTMQMNDKFFAHGMNKEQADNEMLLLFLKQLSVKSKAIKEIHQKYHSLSNDFRLVAVFLTNPVIYEKIVTNRSRALRNALKESLQTPSARIAQTQLSAQLRPCFENLLVSIKDESHLSVEFSGINDCEMKAILRKILNAQKEIFQLHQQFCGIMKTIGSYPLGNWGDSEFDFIKTNQRVFISDFYSIIDYADIILMGYLDIYHCALNLK”: “not soluble”; for “MIDILLCDVIITIGDVEIKAHKTILAAGSTYFKTMFTTPMIARDLATRVNLQMFDKMSSKILYSTYTIGI”: “not soluble”.
With “MIDKVRAFIHRHQLLSEGAAVIVGVSGGPDSLALLHVFLSLRDEWKLQVIAAHVDHMFRGRESEEEMEFVKRFCVERRILCETAQIDVPAFQRSAGLGAQEAARICRYRFFAELMEKHQAGYVAVGHHGDDQVETILMRLVRGSTSKGYAGIPVKRPFHGGYLIRPFLAVSRAEIEAYCRQMGLSPRCDPSNEKDDYTRNRFRHHIVPLLRQENPRLHERFQQYSEMMAEDEQFLEELAADALNKVMEKQHRDAALSIGPFLELPRPLQRRVLQLLLLRLYGGVPPTLTSVHIGHILMLCERGRPSGMIDLPKGLKVIRSYDRCLFTFDAESGEKGYWFELPVPALLPLPNGYAIISEFGEHYPRKQAGNDWFVVDPASVSLPLRVRTRRRGDRMVLKGTGGTKKLKEIFIEAKIPRMERDRWPIVEDADGRILWVPGLKKSAFEAQNRGQARYILLQYQAMNS”, the “soluble on expression in E. coli” value is “soluble”.
Take “MIDLNGQLHDVQATETLGQALAAARPVSAVVQLHGDLGAGKSTLARALLRALGVAGPIRSPTYTLVERYPLSTGDEAWHLDLYRIGHAGELDFLGLDEGSASLWLVEWPERGAGVLPPVDLDVELAVAGEGRSVRLLGRSAIGHAWMDRLSRQPQLQVLFAASREELEHHHHHH”: the “soluble on expression in E. coli” value is reported as “not soluble”.
Turning to “MIDMFHINIPFKKDVIIEMGDCGFVDFAKLAEKTELKIACGNVEFSVVNDQKKVRTDDLYHPWSTIPSSYTDIACKVFDAEPRANVFWGYLQLKASPAKVMQGHNVYGSEDFRLCVEYLLDSLQKAQPELWELLDVGLAEMTRIDCTYSIKCANPDILRQTIKQMGNVSNRYIKPARNSDFETTLYFNRATKANPGAGRSFELCIYTKHDEIAHQLADLKRRARQGDSDRFNRIIDELSKPELQAFAANRLRFEGRAKKRFIQKHVGSANLWQVIRHAEQFEAKNGYRFCEWMFKTLFHDLLESLKGEELELYNDSKIKQLLRDAYSTMTPKGNISYAKADRLFRFYMTLCDRGYQELKAHSSKATLHRNMRDLMAIGFSKADLQNLSEGERMPLAQVLNFNFDNQRPANYVEPVSPTALEHHHHHH”, the “soluble on expression in E. coli” value was “not soluble”.
Turning to “MIEIIETGPFNTVQDLGRPGYRDVGVSAGGAMDPLAVKIGNILLGNFDDAAVIEVQTFPFKMRFEARAAFAVTGADGQMLLDGRELLPWCTHVAAEGQVLELKQPPQFARAYISLTGGVDVPVLMGSRSTALRGGFGGNAGRPLARGDRLKIGTVADALPLPASGIAVIEPATALRDVFAPPIEGILQIRAIPAGEHGLFASDGEAFWSQTWRISSRSDRTGYRLSGEPIKPTETIEMRSHGVVPGVVQVPPGGEPIIQMSDANTAGGYPKVAGVIECDLWRLGQARIGSRLQFVRSTHAEARVVEQAVASYLEDIRQTSHMVKRALKAMAAAALEHHHHHH”, the “soluble on expression in E. coli” value was “not soluble”.
As to “MIEIKRIQQQPDLAQAIYAVMAAVYLVSPWTLEQIQADLSQDQTWYALAYDGAEVIGFLAVQENLFEAEVLQIAVKGAYQGQGIASALFAQLPTDKEIFLEVRQSNQRAQAFYKKEKMTVIAERKAYYHDPVEDAIIMKREIDEG”, the “soluble on expression in E. coli” value was “soluble”.
As for “MIENIMSLQKGLPEEISALEEDLAFTSRQIEARKKIADERQKLRERLNSVIHDCKEKIKSFKEKQTLARNNKEYDALSKQIEYEEKEIAQAEIQLQDISHAEHHAQELQKKGRELIAENRYDEISEEMMPDDVLQQQMEDLGQQVRQKKEELESIVVETAEEVAQLKAVLSEQRSVVAQQAKRLLDKYDHLKSGSIQNAVVKLDRQACSGCNTRVPTNRHTLIVQGGFYVCESCGRIVVHERLFDEAAASGQQ”, the “soluble on expression in E. coli” value is recorded as “not soluble”.
Consider “MIFAKGHGTQNDFVLLPDVDAELVLTAARVAALCDRRKGLGADGVLRVTTAGAAQAVGVLDSLPEGVRVTDWYMDYRNADGSAAQMCGNGVRVFAHYLRASGLEVRDEFVVGSLAGPRPVTCHHVEAAYADVSVDMGKANRLGAGEAVVGGRRFHGLAVDVGNPHLACVDSQLTVDGLAALDVGAPVSFDGAQFPDGVNVEVLTAPVDGAVWMRVHERGVGETRSCGTGTVAAAVAALAAVGSPTGTLTVHVPGGEVVVTVTDATSFLRGPSVLVARGDLADDWWNAMG”, for which the “soluble on expression in E. coli” value is “not soluble”.
Take “MIFVLDVGNTNAVLGVFEEGELRQHWRMETDRHKTEDEYGMLVKQLLEHEGLSFEDVKGIIVSSVVPPIMFALERMCEKYFKIKPLVVGPGIKTGLNIKYENPREVGADRIVNAVAGIHLYGSPLIIVDFGTATTYCYINEEKHYMGGVITPGIMISAEALYSRAAKLPRIEITKPSSVVGKNTVSAMQSGILYGYVGQVEGIVKRMKEEAKQEPKVIATGGLAKLISEESNVIDVVDPFLTLKGLYMLYERNANLQHEKGEHHHHHH”: the “soluble on expression in E. coli” value is listed as “soluble”.
In the case of “MIGCLCIHGFTGSPEEVAPLADYLRERTDWMIETPTLPGHGSELRLKGITYDQWIAAAEQAFLALHHRCSVVYVIGFSMGGVIAVYLAEKYPVAKLVLLSAAFYYVNPRQLWRDIREMFANGWKGAREHPLFLRYRNKMMATPFSAVREFRKLVRDVRPRLPRVAAPALIVQGEKDGIVPLKSAYYLYEQIGSAEKKLLLLPNSFHHVCHSIDRHVLFAEVETFLRAAHAHHCKSPHNMV” it was “not soluble”; in that of “MIGGGPGGLYFAYLWKKRHPEDQVDLFEQNPADATWGFGVVFSDQALEFLRADDPETVDAIAPHMESWENITLNLQGGSVAIDGVGFSSIGRLELLQFLQQRALDVGVTPRFDTQIHGIDQLNGHDLIVAADGLNSLVRRAYEGDFGTSLSYSSNKFVWYGTSKRFDTLSQTFVKTDRGAFNAHHYRYSPTMSTFLVECDHATWQAYGFAYKDVEQSKGVCEEVFADTLGGHCLVSNKSVWRNFPWVWNEHWSFKNMVLIGDALHSAHFSIGSGTRLAIEDAIALVKALESDAHLNTALLRYQAARKPVVQKLVDAARTSASWYENFAQHMQLDLMDFAYSYITRSGRIDDSRLRAMSPAFMARYEAAKNGGDAASEATALEHHHHHH”, “soluble”.
Take “MIGNFTIVDGHVHTFSSEEVSLKVLKSFNKIYNIEFENPGTGTIEDVLNNMKNEGIDYTVMANFAPVKILHANNKWTLEEARKHPNLIPLVSFHPDMDVSFTSLLEEYISDGAKGIKLHPMAQGFDPRDERLKGLYEFCNDIAFPIVFHCGRVANARLNSFSDVETLEPLIAMYENISFVLTHMADGNVKDVLRLSRTYKNVYFDTSIVISGYPPIRETNKPSWLDDSIPEGVINEIGAHRVVFGSDYPWGSPAWDLKRFMSMKLDDEEKKNILGENAMKLFLNTAYN”: the “soluble on expression in E. coli” value was “soluble”.
With “MIGRLRGIIIEKQPPLVLIEVGGVGYEVHMPMTCFYELPEAGQEAIVFTHFVVREDAQLLYGFNNKQERTLFKELIKTNGVGPKLALAILSGMSAQQFVNAVEREEVGALVKLPGIGKKTAERLIVEMKDRFKGLHGDLFTPAADLVLTSPASPATDDAEQEAVAALVALGYKPQEASRMVSKIARPDASSETLIREALRAAL”, the “soluble on expression in E. coli” value is reported as “soluble”.
